How the values were obtained:
[1] = molecular target: human TEM8 on CHO-hTEM8 cells (human, UniProt Q9H6X2 33-564); experiment: FACS on CHO-hTEM8 cells
[2] = molecular target: T1, mouse TEM8 on CHO-mTEM8 cells (mouse, UniProt Q9CZ52 31-562); experiment: FACS on CHO-mTEM8 cells
T1 construct: also called murine TEM8
T1 sequence (Q9CZ52 31-562): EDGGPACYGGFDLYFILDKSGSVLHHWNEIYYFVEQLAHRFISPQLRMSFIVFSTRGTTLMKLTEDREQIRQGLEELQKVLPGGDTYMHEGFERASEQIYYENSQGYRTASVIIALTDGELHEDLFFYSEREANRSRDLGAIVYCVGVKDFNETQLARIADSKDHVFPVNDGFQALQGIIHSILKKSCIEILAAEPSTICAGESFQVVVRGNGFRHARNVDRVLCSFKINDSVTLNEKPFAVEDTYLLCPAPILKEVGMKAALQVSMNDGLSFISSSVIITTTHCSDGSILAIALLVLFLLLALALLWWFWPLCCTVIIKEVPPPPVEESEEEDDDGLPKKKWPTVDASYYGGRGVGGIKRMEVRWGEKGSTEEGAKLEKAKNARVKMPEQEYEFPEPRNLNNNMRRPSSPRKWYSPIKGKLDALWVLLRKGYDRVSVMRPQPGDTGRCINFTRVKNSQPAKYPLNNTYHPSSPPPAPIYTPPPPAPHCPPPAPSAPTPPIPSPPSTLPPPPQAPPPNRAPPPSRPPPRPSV

Chain of human TEM8 on CHO-hTEM8 cells (Q9H6X2 33-564): as the sequence (Q9CZ52 31-562) above, with R40K, S104R, A241S, V297I, V327A, S458N, T468A, P471T, A493P counted along it

B1: 7E3 (antibody, human IgG1, lambda, L234A L235A, V domains shown)
VH: QVQLVESGGGLVNPGGSLRLSCAVSGFTSSGFSINWVRQAPGKGLEWVSSISGIGDSIFYADSVKGRFTISRDNAKNLVFLQMNSVKAEDTAVYYCVRDKWGWGTYSLFDYWGQGTLVTVSS
VL: QAVLTQPPSASGTPGQRVTISCSGSSSNIASNVVSWYQQLPGTAPKVLIYSNNRRPSGVPDRFSGSKSGASASLAISGLQSDDETHYYCAAWDDSLKGPVFGGGTQLTVLG
notes: Full IgG made in CHO cells, lambda constant region; also called TEM8-7E3
EC50 [1]: 0.75 nM | EC50 [2]: 1.41 nM

B2: 11B7 (antibody, human IgG1, lambda, L234A L235A, V domains shown)
VH: QVQLVQSGGGVVQPGRPLRLSCAASGFNLGSYAMSWVRQAPGKGLEWVSAISGSGGSTYYADSVKGRFTISRDNSKNTLYLQMNSLRAEDTAVYYCAKILGPGNLNYYYYYGMDVWGQGTTVTVSS
VL: SSELTQDPAVSVALGQTVRITCQGDSLRNSYASWYQQKPGQAPVLVIYGNNNRPSGIPDRVSGSRSGNTASLTITGAQAEDEADYYCNSRDSSGNHVVFGGGTELTVLG
notes: Full IgG made in CHO cells, lambda constant region; also called TEM8-11B7
EC50 [1]: 0.85 nM | EC50 [2]: 1.21 nM

B3: 3B3 (antibody, human IgG1, kappa, L234A L235A, V domains shown)
VH: EVQLVQSGGGLVKPGGSLRLSCAASGFTFSSYSMNWVRQAPGKGLEWVSSISSSSSYIYYADSVKGRFTISRDNAKNSLYLQMNSLRAEDTAVYYCARVRPPYGMDVWGQGTLVTVSS
VL: NIQMTQSPSSVSASVGDTVTISCRASQGISNWLGWYQQRPGEAPKLLIYAASHLQSGVPSRFSGSGSGTDFVLTITSLQPEDFATYYCQQSNSFPLAFGGGTKLEIKR
notes: Full IgG made in CHO cells, kappa constant region; also called TEM8-3B3
EC50 [1]: 1.51 nM | EC50 [2]: 2.14 nM

B4: 3A3 (antibody, human IgG1, kappa, L234A L235A, V domains shown)
VH: QVQLVQSGPEVKKPGAPVKISCKTSGYIFDDYGITWVRQAPGQGLEWLGWISTYNGKTSFAQKVQGRLTMTTDISTNTASMELRGLRSDDTALYYCARVFSRYIPFYFDSWGQGTLVTVSS
VL: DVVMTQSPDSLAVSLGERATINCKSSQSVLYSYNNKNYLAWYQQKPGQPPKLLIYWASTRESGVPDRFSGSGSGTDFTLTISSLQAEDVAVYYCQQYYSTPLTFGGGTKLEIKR
notes: Full IgG made in CHO cells: variable regions joined to the IgG heavy chain constant region and the kappa constant region; also called TEM8-3A3
EC50 [1]: 0.71 nM | EC50 [2]: 1.48 nM

B5: 6A6Q (antibody, human IgG1, lambda, L234A L235A, V domains shown)
VH: EVQLVESGGGVVQPGGSLRLSCAASGFTFDDYAMHWVRQAPGKGLEWVSLISGDGGSTYYADSVKGRFTISRDNSKNSLYLQMNSLKASDTAMYYCARPRWGRYSSSWPFDYWGQGTLVTVSS
VL: QSALTQPASVSGSPGQSITISCTGTSSDVGTYNYVSWYQQHPGKAPKLMIYDVTDRPSGISNRFSGSKSGNTASLTISGLQAEDEGNYYCSSYTSQRSWVFGGGTKLTVLG
notes: Full IgG made in CHO cells, lambda constant region; Variant of 6A6 whose light chain glycosylation site NRS was mutated to QRS; also called TEM8-6A6Q
EC50 [1]: 0.63 nM | EC50 [2]: 1.16 nM
